# Experiment: yeast display, Sf9 membrane polyspecificity reagent, FACS + sequencing; frameworks hold sequencing errors
# In short: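 Nanobodies from a synthetic yeast display library (Saccharomyces cerevisiae BJ5465), induced 36–48 hours with galactose, were stained 1 hour at 4 °C with 10% biotinylated, detergent-solubilized Sf9 membrane reagent, enriched on streptavidin microbeads, then FACS-sorted. Anti-HA (expression) and streptavidin (reagent binding) fluorescence set low and high (top ~1%) gates. Polyreactivity labels come from the gate of origin. Genes were colony-PCR amplified, MiSeq 2 × 250 sequenced and filtered by CDR length.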
row,Sequence,polyreactivity (PSR sort gate)
1,QVQLVESGGGLVQAGGSLRLSCAASGRIFHPNAMGWYRRATGKERELVAAISRSGSTYYADSVKGRFTISRDNAKNTVYLQMNSLKPEDTAVYYCATQTWSGYSGTPRIYDYWGQGTQVTVSS,high polyreactivity
2,QVQLVESGGGLVQAGGSLRLSCAASGRIFHQYGMGGYSQAPGKERELVAAIRSGDSTNYADSVKGRFTISRDNAKNTVYVQMNSLKPEDTAVYYCARDRPGDYAGYDYWGQGTQVTVSS,low polyreactivity
3,QVQLVESGGGLVQAGGSLRLSCAASGRIFHSKAMGWYRQAPGKERELVAAITWSTGRTYYADSVKGRFTISRDNAKNTVYLQMNSLKPEDTAVYYCFRFSYYTGDYWGQGTQVTVSS,high polyreactivity
4,QVQLVESGGGLVQAGGSLRLSCAASGRIFHYNDMVWYRQAPGKEREFVATIRYSGGSTYYADSVKGRFTISRDNAKNTVYLQLNSLKPEDTAVYYCATSRRYLRFRNYYGYDYWGQGTQVTVSS,high polyreactivity
5,QVQLVESGGGLVQAGGSLRLSCAASGRIFHYYAMGWYRQAPGKERELVAAITSSGGSTYYADSVKGRFTISRDNAKNTVYLQMNSLKPEDTAVYYCAAGLIVGRFLRYDYWGQGTQVTVSS,high polyreactivity
6,QVQLVESGGGLVQAGGSLRLSCAASGRIFIGNAMGWYRQAPGKERELVAAITWSGDDSTYYADSVKGRFTISRDNAKITVYLQMNSLKTEDTAVYYCAAYSYYYEYNYWGQGTQVTVSS,low polyreactivity
7,QVQLVESGGGLVQAGGSLRLSCAASGRIFINVLGWSRQAPGKETELVATITNSGGSTYYADSVKGRFTISRDNAKNTVYLQMNSLKPEDTAVYYCAKRSYHRYGVYRYDYWGQGTQLTVSS,high polyreactivity
8,QVQLVESGGGLVQAGGSLRLSCAASGRIFIRNAMGWYRQAPGKERELVAAITWSGGGTYYADSVKGRFTISRDNAKNTVYLQMNSLKPEDTAVYYCNVDITGYEDDYWGQGTQVTVSS,low polyreactivity
9,QVQLVESGGGLVQAGGSLRLSCAASGRIFISNAKGWYIQAPGKERELVAAITWIGDRTYYADSVKGRFTISRDNAKITVYLEMNSLKPEDTAVYYCNRVTSRVSGRYSYEYWGQVTQVTVSS,high polyreactivity
10,QVQLVESGGGLVQAGGSLRLSCAASGRIFIYYAMGWDRQAPGKERELVAAISWGGGRTYYADSVKGRFTISRDNAKNTVYLQMNSLKPEDTAVYYCAAGVYTGQHEYDYWGQGTQVTVSS,low polyreactivity
11,QVQLVESGGGLVQAGGSLRLSCAASGRIFIYYAMGWYRQAPGKERELVAAISWGGGRTYYADSVKGRFTITRDNAKNTVYLQINSLKPEDTAVYYCAAGVYTGQHEYDYWGQGTQVTVSS,low polyreactivity
12,QVQLVESGGGLVQAGGSLRLSCAASGRIFIYYAMGWYRQAPGKERELVAAITRGGNTNYADSVKGRFTISRDNAKNTVYLQMNSLKPEDTAVYYCAAAIRYGSRHRGYWGQGTQVTVSS,low polyreactivity
13,QVQLVESGGGLVQAGGSLRLSCAASGRIFKDNAMGWYRQAPGKERELLATIDSGGDTNYADSVKGRFTISRDNAKNTVYLQMNSLKPEDTAVYYCNTEGFLSAVFAFGYWGQGTQVTVSS,low polyreactivity
14,QVQLVESGGGLVQAGGSLRLSCAASGRIFKDYAMGLYRQAPGKERELVAGIDYRGGSTYYADSVKGRFTISRDNAKNTVYLQMNSLKPEDNAVYYCAADSLISIYDYWGQGTQVTVSS,low polyreactivity
15,QVQLVESGGGLVQAGGSLRLSCAASGRIFKFNAMGWYREAPGKERELVAAITTGGGSTYYADSVKGRFTISRDNAKNTVYLQMNSLKPEDTAVYYCATDRRHEYSSRRYYYWGQGTQVTVSS,high polyreactivity
16,QVQLVESGGGLVQAGGSLRLSCAASGRIFKFYTMGWDRQAPGKERELVASIDSTGGSTYYADSVKGRFTISRDNAKNTVYLQMNSLKPEDTAVYYCAAEWIWSSNWYKKYDYWGQGSQVTVSS,high polyreactivity
17,QVQLVESGGGLVQAGGSLRLSCAASGRIFKGYAMGWYRQAPGKERELVAAITWRGGTTYYADSVKGRFTISRDNAKNTVYLQMNSLKPEDTAVYYCATTRYPRSYQEFGYWGQGTQVTVSS,high polyreactivity
18,QVQLVESGGGLVQAGGSLRLSCAASGRIFKGYAMGWYRQAPGKERELVAAITWRGGTTYYADSVKGRFTISRDNAKNTVYLQMTSLKPEDTAVYYCARARPTGYNYWGQGTQVTVSS,high polyreactivity
19,QVQLVESGGGLVQAGGSLRLSCAASGRIFKNNAMGWYRQAPGKERELVAGISRSGGRTYYADSVKGRFTISRDNAKNTVYLQMNSLKPEDTAVYYCNAYAYYSHGVTTTYDYWGQGTQVTVSS,high polyreactivity
20,QVQLVESGGGLVQAGGSLRLSCAASGRIFKRSVMGWYRQAPGKERELVAAITGRGGSTYYADSVKGRFTISRDNAKNTVYLQMNSLKPEDTAVYYCNAKDAEHYERFNYWGQGTQVTVSS,low polyreactivity
21,QVQLVESGGGLVQAGGSLRLSCAASGRIFKRYAMGWYRQAHGKERELVASITWSGGSTYYADSVKGRFTISRDNAKNTVYLQMNSLKPEDTEVYYCAARRTATTSRAYYYWGQGTQVTVSS,high polyreactivity

row,Sequence,polyreactivity (PSR sort gate)
1,QVQLVESGGGLVQAGGSLRLSCAASGRIFKRYAMGWYRQAPGKERELVAAITRSGTRTYYADSVKGRFTISRDNAKNTVYLQMNSLKPEDTAVYYCAAALGWYSAFGYWGQGTLVTVSS,high polyreactivity
2,QVQLVESGGGLVQAGGSLRLSCAASGRIFKRYAMGWYRQAPGKERELVAAITYNSGSTYYADSVKGRFTISRDNAKNTVYLQMNSLKPEDTAVYYCAAEKWSDQSPRGDYWGQGTQVTVSS,low polyreactivity
3,QVQLVESGGGLVQAGGSLRLSCAASGRIFKSYVMGWYRQAPGKERELVAAITRTGGSTYYADSVKGRFTISRDNAKYTVYLQMNSLTPEDTAVYYCNARYSWPRATWYDYWGQGTQVTVSS,high polyreactivity
4,QVQLVESGGGLVQAGGSLRLSCAASGRIFKTNAMGWYRQAPGKERELVAAISWRGVGTYYADSVKGRFTISRDNAKNTVYLQMNSLKPEDTAVYYCAARWTVPRDTAPSKGYDYWGQGTQVTVSS,low polyreactivity
5,QVQLVESGGGLVQAGGSLRLSCAASGRIFKTYTMGWYRQAPGKERELVAVITSGGGTYYADSVKGRFTISRDNAKNTVYLQMNSLKPEDTAVYYCAARGLESPYGYWGQGTQVTVSS,low polyreactivity
6,QVQLVESGGGLVQAGGSLRLSCAASGRIFKVNAMGWYRQAPGKERELVAVINSRGGSTYYADSVKGRFTISRDNAKNTVYLQMNSLKPEDTAVYYCAAPLTYFKRVYYWGQGTQVTVSS,high polyreactivity
7,QVQLVESGGGLVQAGGSLRLSCAASGRIFKWNAMGWYRQAPGKERELVAAISLSGGSTYYADSVKGRFTISRDKAKNTVYLQMNSLKPEDTAVYYCNAYAYHRYGYWGQGTQVTVSS,high polyreactivity
8,QVQLVESGGGLVQAGGSLRLSCAASGRIFKWNAMGWYRQAPGKERELVAAISTSGGNTYYADSVKGRFTISRDYAKNTVYLQMNSLKPEDTAVYYCAATYPNSLRQVGYWGQGTQVTVSS,high polyreactivity
9,QVQLVESGGGLVQAGGSLRLSCAASGRIFKYNAMGWYRQAPGKERELVAAIRRSGGSTYYADSVKGRFTISRDNAKNPVYLQMNSLNPEDTAVYYCAATGYVGGIYGHYPRGYWGQGTQVTVSS,high polyreactivity
10,QVQLVESGGGLVQAGGSLRLSCAASGRIFKYNAMGWYRQAPGKERELVAAISGRGVSTYYADSVKGRFTISRDNAKNTVYLQMNSLKPEDTAVYYCAAETVHGSADFDYWGQGTKVTVSS,low polyreactivity
11,QVQLVESGGGLVQAGGSLRLSCAASGRIFKYYAMGWFRQAPGKERELVAAISSGSSTNYADSVKGRFTISRDTAKNTVYLQMNSLKPEDTAVYYCAAKYYRSKFDFWGQGTQVTVSS,high polyreactivity
12,QVQLVESGGGLVQAGGSLRLSCAASGRIFKYYAMGWYRQAPGKERELVAAINRDGGRTYYADSVKGRFTISRDNAKNTVYLQMNRLKPDDTAVYYCAASYGYWGQGSQVTVSS,low polyreactivity
13,QVQLVESGGGLVQAGGSLRLSCAASGRIFKYYAMGWYRQAPGKERELVAAISRGGSTYYADSVKGRFTISRDNAKNTVYLQMNSLKPEDTAVYYCNRLSNNREYDYWGQGTQVTVSS,high polyreactivity
14,QVQLVESGGGLVQAGGSLRLSCAASGRIFKYYAMGWYRQAPGKERELVARISSRGGSTNYADSVKGRFTISRDNAKNTVYLQMNSLKPEDTAVYYCAAQYQNFPYGYWGQGTQVTVSS,high polyreactivity
15,QVQLVESGGGLVQAGGSLRLSCAASGRIFKYYAMGWYRQPPGKERELVAAISRSSGRTYYADSVKGRCTISRDNAKNTVYFQMIRLKPEDTAVYYCNALPSTVYLTYDYWGLGTQVTVSS,high polyreactivity
16,QVQLVESGGGLVQAGGSLRLSCAASGRIFLANAMGWSRQAPGKERELVAAISLSGGRTYYADSVKGRFTISRDNAKNTVYLQMNSLKPEDTAVYYCAAEFYPIRYYGGYDYWGQGTLVTVSS,low polyreactivity
17,QVQLVESGGGLVQAGGSLRLSCAASGRIFLFYAMGGYRQAPGKERELVAAISSTDDTYYADSVKGRFTISRDNAKNTVYLQMNSLKPEDTAVYYCAAYSIISQSEMYYWGQGTQVTVSS,low polyreactivity
18,QVQLVESGGGLVQAGGSLRLSCAASGRIFLGNAMGWYRQAPGKERELVAAIDASGGSTYYADSVKGRFTISRDNAKNTVYLQMNSLKPVDTAVYYCNAEPRYYSGGHGYDYWGQGTQVTVSS,low polyreactivity
19,QVQLVESGGGLVQAGGSLRLSCAASGRIFLGNVMGWYRQAPGKERELVAAISKSGGTTYYADSVKGRFTISRDNAKNTVYLQMNSLKPEDTAVYYCAAYGSWRTYHYYYWGQGTQVTVSS,high polyreactivity
20,QVQLVESGGGLVQAGGSLRLSCAASGRIFLGNVMGWYRQAPGKERELVAAISSGGSTNYADSVKGRFTISRDNAKNTVYLQMNSLIPEDTAVYYCAAYFVRDWKLYYYWGQGTQVTVSS,low polyreactivity

# Source: the nanobody polyreactivity screen of Harvey et al. (2022)
